Test results published in patent US20250034594A1, “RNA-GUIDED GENOME RECOMBINEERING AT KILOBASE SCALE” (THE BOARD OF TRUSTEES OF THE LELAND STANFORD JUNIOR …, priority 2021, published 2025).

B1: SSAP_68: SEQ ID NO: 237 (protein)
chain: TQQMPIEAQGEPTKELQQKAAVDRFNATLHQMQNEIARALPKHMTGDRFVRIVLTEVRKDPTLALCDPLTMFGSLLTAAALGLEPGLNGECWLVPRKNHGTLEAQLQVGYRGVVKLFWQNPAAAYLDTGYVCERDHFRFAKGLNPILEHTPAEGDRGKVVRYYAVAGLNTGARVFDVFTPAQIKTLRGGKVGSNGDIPDPEHWMERKTALLQVLKLMPKSTQLAAVPAADGRAHTISDAQQIFGGVDTSTGEVLEAEPVEGDAA
B2: SSAP_54: SEQ ID NO: 223; Bet Pseudomonas phage PS-1 (protein, listed as Pseudomonas sp.)
chain: SNVATIKPSSLSARMAERFGVDPNEMMATLKATAFKGQVSDAQMQALLIVADQYGLNPWTKEIYAFPDKGGIVPVVGVDGWSRIINENGAFDGMDFQQDDESCTCIIYRKDRNHPIKVTEWMAECKRNTQPWQSHPKRMLRHKAMIQCARLAFGYTGIFDEDEAQRIVEKDVTPAVNEPDITPALEAIKNASSMEELHAAFKAAWNQHPSARARLTAVKDERKKALSEPIEGELVENEDGPAQQ
B3: SSAP_203: SEQ ID NO: 372; Oenococcus oeni (protein, listed as Oenococcus oeni)
chain: SNELKTILNAPTTKEKFDEVLGRNAQGYINSVLNAVGNSKLLQNASPNSILSGAMKAATLNLSIDPNLGYAYFVPYGHEAQLQIGYQGLIQLAQRSGQIKILNAAPIYDEQFKSLDPVTGKLTLNKKIVPDTNKKPTGYVAYLKTVTGFEHTEFMSYADIEKFAKRFSKSFNSSTSPWKTDFNAMAKKTLIKQVLKYAPMSIDLQTAVSADNDDIEPKDITPDEDKETVDKISNLISDNKQDDTLSQLEEVANANN
B4: SSAP_101: SEQ ID NO: 270; Halomonadaceae bacterium R4HLG17 (protein)
chain: SEVATQDTLGKELQQHSGQQKKPMPTTIQGMLKDPRFTSQIARALPKHITPDRITRIALTEVNKTPALGKCDPVTLFGSIIQSAQLGLELGGALGHAYLVPYGNQAQFIIGYRGMIDLARRSGQMVSLQAHTVHDNDEFDFEYGLDEKLRHVPARGDRGPMVAVYSVAKLVGGGHQIEVMWKEDVDAIRSKSKAGNSGPWRDHYEEMAKKTAIRRLFKYLPVSVEMQKAVALDEQAEAGVQDNNVFDGEFSYGEAE
modifications: Halomonadaceae bacterium R4HLG17
B5: SSAP_142: SEQ ID NO: 311; Roseburia intestinalis (protein, listed as Roseburia intestinalis)
chain: GDIRSELAKKAEQTQGNTKLTKSMSIADLIKAMEPEIQKALPSVITPERFTRMALSALNTTPKLQECTPMSFLAALMNAAQLGLEPNTPLGQAYLIPYKNKNVLECQFQLGYRGMIDLAYRNGHMQSIEAQAVYENDVFSYALGLHPELVHKPTLEEKGALKAFYAIFRLDNGGFRFEVMGKTYIDWYANRYSKAFTSEFSPWKSNYEGMAKKTVIKQLLKYAPLKTEFQRALSTDETIKNSLNVDMGEVLSEDIIDMPCEEVA
B6: SSAP_32: SEQ ID NO: 201 (protein)
chain: EFETDEEEKEMSNNQLSTQQAKRDIAIDTSVWTFQDVKRYFDPQNLLTEKQVGQALSLIKGRNLNPLANEVYIVAYKKKTGGTEFSLIVSKEAFLKRAAQNPNYEGFEAGVVTVDTDGVMHERKGALMLPGDTLVGGWARVYRKNFKVPVEIFVSREEYDKKQSTWNAMPATMIRKTALVNALREAFPEDLGNMYTEDDGGETFDRIKQAEPVESREDVMARKMAQIEQMKQEQAQRQIDTSYPTDDVIDPDDEPAQGELLEDLEY
B7: SSAP_165: SEQ ID NO: 334; Robinsoniella sp. KNHs210 (protein, listed as Robinsoniella sp.)
chain: TTRTGNIKEELAKKAEGTNGDTRLTKAMSIADLIKAMEPEIKKALPEVITPERFTRMALSALNTTPKLRECTQISFLAAMMNAAQLGLEPNTPLGQAYLIPFNNKGTMECQFQIGYKGMIDLSYRNPQMQMISAQAVYENDEFKYELGLNPTLIHRPVLRGRGEVILFYGLFKLTNGGYGFEVMSKEEMDAYAKAYSKAIDSSFSPWKSNYNGMAKKTVIKQVLKYAPIKADFRKALSSDETIKNEISENMSEIHGEIIFDTDYMEESA
B8: SSAP_81: SEQ ID NO: 250 (protein)
chain: TDVKQELERKVGKQDSTAVRLTKNMSIPDMIKALEPEIRRALPAVLTPERFLRMALSAVNNTPKLAECTPMSFIAAMMNAAQLGLEPNTPLGQAYLIPYKNKNQLECQFQIGYKGIIDLAYRTGQMQMIQAHAVHEFDDFEYEYGLNPKLIHRPGDGNRGEITYFYGLFKLVNGGFGFEVMNREAMEAFAQQYSQSYGSQYSPWVKNFEDMAKKTVIKKALKYGPVKAEFQKAISMDETIKTEIAVDMTEVQNEESE
B9: SSAP_319: SEQ ID NO: 488; Helicobacter trogontum (protein, listed as Helicobacter trogontum)
chain: SNITTIQRKNEALALLENKEIQERLCALCGNEASKDKFKASLLNIALDSNLSACSMQSIVKASLDIAGLKLSLNKNLGKAYIVPRKVKIGNDYITEARIDIGYKGWLELAKRSKLSVKAHSVFDCDDFVYSVDGVDEYMKLTPNFELRQEHDSAWVKEHLKGIVVGIKDLKSGDSEVKFVSKGTLLKIMQKNDSVKNGKYSAYTDWLHEMLLAKAIKSCLSKTAMSEDTFYLIISNNKLFI
B10: SSAP_129: SEQ ID NO: 298; Lacrimispora indolis (protein, listed as Lacrimispora indolis)
chain: SDVKQELEKRAAGGGGQSQSVRLTKNMTIVDMVKALEPEIKRALPSILTPERFTRMALSAINNTPKLGECTPMSFIAALMNAAQLGLEPNTPLGQAYLIPYKNKGVLECQFQLGYRGLIDLAYRNERMQSVEAQVVYENDEFSYELGLHPSLIHRPSFDEPGEIRAFYAIFRLDNGGFRFEVMSKSYVDAYAARYSKAFTSDFSPWKSNYEGMAKKTVIKQLLKYAPMKSEFQKAVTMDETIKTELSVDMSEVSNQEVIDRELTEQVA
B11: SSAP_145: SEQ ID NO: 314; Roseburia sp. CAG: 182 (protein, listed as Roseburia sp.)
chain: DVKEELAKMAEEKPTKKLTKSMSIQDMIKVIEPEIKKALPSVLTPERFTRMALSAINNTPKLAECSQISFLAALMNAAQLGLEPNTPLGQAYLIPFQNKGKLECQFQIGYKGIIELVYRNPLIQTIQAQVVYENDEFEYELGLNSRLFHRPALYDRGETVLFYALFKMSNGGYGFEVLSKQDMDAYAKRYSKGISSEYSPWKSNYEEMAKKTMIKKVLKYAPIRTDFQKAVSMDESIKKELSVDMSEVSNENIIDMEEITQEEE
B12: SSAP_274: SEQ ID NO: 443; Clostridium liquoris (protein, listed as Clostridium liquoris)
chain: TTASELKNQLATRKETGVGSAGNTVKGLLESPAIKKRFEEVLKQRAPQYMSSIVNLVNGDANLKKCDQMSVIASCMVAATLDLPVDKNLGYAWVVPYGNKAQFQLGYKGYVQLALRTGQYKSINVIEIHEGELIEWNPLTEELRIDFEKKKSDAIIGYAGYFELINGFRKSTYWTKEQITKHKNKFSKSDFGWKKDFDAMAKKTVLRNMLSKWGILSIEMQNAYTADQETIKSEVLETGNIKENVEYVEADFDVDFEGTPFEEGVTNE
B13: SSAP_224: SEQ ID NO: 393; Clostridium tyrobutyricum (protein, listed as Clostridium tyrobutyricum)
chain: SDKKMVVLGESHKALSKLLETKQEALPKDFNKARFLQNCMTVLQDTKDIDKCQPISVARTMLKGAFLGLDFFNRECYAIPYGGNLQFQTDYKGEIKLAKKYSFNSIKDIYAKIVREGDDFQESIEDGRQTINFKPLPFNNGEIIGAFAVCLFQDGSMLYETMTKQEIEDIRNNFSKAKNSPAWVKTPGEMYKKTVLRRLCKLIELDFDSVETKKTYDETSEFEFGSANHEVSNFDKDDSNIIEADAEIQDDVQEGDGEDE

What was measured:
Assay type in all cases: cell-based
gene editing with Cas9 = assay: Screen of 322 new SSAP proteins, gene editing activity with Cas9 (Table 5); parameters: Cas9 with SSAP activity: scale not given here
In short: (§1)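 Sequence-mined SSAPs (n=322), synthesized; editing activity screened with Cas9 or dCas9.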

gene editing with dCas9 = assay: Screen of 322 new SSAP proteins, gene editing activity with dCas9 (Table 5); parameters: dCas9 with SSAP activity: scale not given here
In short: as §1

[1] = system: gene editing with Cas9 and dCas9; assay: Screen of 322 new SSAP proteins, activity across all experiments (Cas9 and dCas9, Table 5); parameters: scale not given here
In short: as §1

Row | Molecule | Cas9 with SSAP activity (gene editing with Cas9) | Cas9 with SSAP activity (normalized) (gene editing with Cas9) | dCas9 with SSAP activity (gene editing with dCas9) | dCas9 with SSAP activity (normalized) (gene editing with dCas9) | Activity across all experiments [1]
1 | B1 | 1.110 | 4.696 | −2.230 | −0.296 | −0.560
2 | B2 | −0.011 | −0.061 | −2.517 | −0.565 | −1.264
3 | B3 | −2.670 | −0.476 | −2.129 | −0.311 | −2.400
4 | B4 | −1.798 | −0.307 | −2.273 | −0.413 | −2.036
5 | B5 | 0.197 | 0.073 | −2.145 | −1.216 | −0.974
6 | B6 | −0.435 | −1.203 | −2.180 | −0.281 | −1.308
7 | B7 | −0.918 | −0.925 | −2.157 | −0.568 | −1.538
8 | B8 | −2.257 | −0.341 | −2.360 | −0.367 | −2.308
9 | B9 | 0.742 | 1.773 | −2.508 | −0.276 | −0.883
10 | B10 | 0.031 | 0.019 | −2.431 | −0.313 | −1.200
11 | B11 | −0.211 | −0.214 | −2.440 | −0.309 | −1.325
12 | B12 | 0.280 | 0.259 | −2.423 | −0.328 | −1.072
13 | B13 | 3.010 | 2.232 | −2.113 | −0.351 | 0.449
